# Biological target: complement component C1q
# Experiment: SPR
binder,measurement,value
soluble SCARF1 protein (receptor) SELDPKGQHVCVASSPSAELQCCAGWRQKDQECTIPICEGPDACQKDEVCVKPGLCRCKPGFFGAHCSSRCPGQYWGPDCRESCPCHPHGQCEPATGACQCQADRWGARCEFPCACGPHGRCDPATGVCHCEPGWWSSTCRRPCQCNTAAARCEQATGACVCKPGWWGRRCSFRCNCHGSPCEQDSGRCACRPGWWGPECQQQCECVRGRCSAASGECTCPPGFRGARCELPCPAGSHGVQCAHSCGRCKHNEPCSPDTGSCESCEPGWNGTQCQQPCLPGTFGESCEQQCPHCRHGEACEPDTGHCQRCDPGWLGPRCEDPCPTGTFGEDCGSTCPTCVQGSCDTVTGDCVCSAGYWGPSCNASCPAGFHGNNCSVPCECPEGLCHPVSGSCQPGSGSRDT,Kd,124 nM

# — paper PMC3752698
